{"source": "patent US20060142548A1", "about": "“Methods of identifying and designing cell surface receptor inhibitors” (priority 2003, published 2006)", "key": {"[1]": {"molecular_target": "physiologic ligand", "assay": "ligand binding to membrane-bound integrin"}, "[2]": {"molecular_target": "T1, αA domain from CD11a (Homo sapiens, UniProt P20701)", "T1 sequence (P20701 156-327 limits assumed)": "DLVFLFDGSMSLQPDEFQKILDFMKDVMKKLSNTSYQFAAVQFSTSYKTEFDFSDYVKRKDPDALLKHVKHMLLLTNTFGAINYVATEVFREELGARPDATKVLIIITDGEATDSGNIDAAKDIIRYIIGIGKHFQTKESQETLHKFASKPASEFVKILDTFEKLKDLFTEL", "details": "binding at the strand-F/α7 interface; reference 84; cited from earlier work"}}, "data": [{"molecule": "αVβ3 integrin mutant D^126D^127/A^126A^127, membrane-bound (from UniProt P06756 31-1048; P05106 27-788) (receptor)", "values": [{"measurement": "fold increase of binding", "setting": "[1]", "value": "1.5 to 2", "unit": "fold"}]}, {"molecule": "CC[C@H](C)C(=O)O[C@H]1C[C@@H](C)C=C2C=C[C@H](C)[C@H](CC[C@@H]3C[C@@H](O)CC(=O)O3)[C@H]21", "note": "[lovastatin]", "values": [{"measurement": "effect of binding on integrin activation state", "setting": "[2]", "value": "locks this integrin in the inactive state"}]}]}
